Measurements from article doi:10.1101/2024.07.03.601791 (bioRxiv, 2024).
Where “and” joins values, the source holds several entries; their conditions need not be identical. Equal values may be shown once. Values belong to the binder of their own block, whether it stands above or below them.

What was measured:
Karyopherinβ2 (Kapβ2) [1] = target: T1, Karyopherinβ2 (Kapβ2) (human, UniProt Q92973-2 1-890); test: chemical tongue
T1 sequence (looked up): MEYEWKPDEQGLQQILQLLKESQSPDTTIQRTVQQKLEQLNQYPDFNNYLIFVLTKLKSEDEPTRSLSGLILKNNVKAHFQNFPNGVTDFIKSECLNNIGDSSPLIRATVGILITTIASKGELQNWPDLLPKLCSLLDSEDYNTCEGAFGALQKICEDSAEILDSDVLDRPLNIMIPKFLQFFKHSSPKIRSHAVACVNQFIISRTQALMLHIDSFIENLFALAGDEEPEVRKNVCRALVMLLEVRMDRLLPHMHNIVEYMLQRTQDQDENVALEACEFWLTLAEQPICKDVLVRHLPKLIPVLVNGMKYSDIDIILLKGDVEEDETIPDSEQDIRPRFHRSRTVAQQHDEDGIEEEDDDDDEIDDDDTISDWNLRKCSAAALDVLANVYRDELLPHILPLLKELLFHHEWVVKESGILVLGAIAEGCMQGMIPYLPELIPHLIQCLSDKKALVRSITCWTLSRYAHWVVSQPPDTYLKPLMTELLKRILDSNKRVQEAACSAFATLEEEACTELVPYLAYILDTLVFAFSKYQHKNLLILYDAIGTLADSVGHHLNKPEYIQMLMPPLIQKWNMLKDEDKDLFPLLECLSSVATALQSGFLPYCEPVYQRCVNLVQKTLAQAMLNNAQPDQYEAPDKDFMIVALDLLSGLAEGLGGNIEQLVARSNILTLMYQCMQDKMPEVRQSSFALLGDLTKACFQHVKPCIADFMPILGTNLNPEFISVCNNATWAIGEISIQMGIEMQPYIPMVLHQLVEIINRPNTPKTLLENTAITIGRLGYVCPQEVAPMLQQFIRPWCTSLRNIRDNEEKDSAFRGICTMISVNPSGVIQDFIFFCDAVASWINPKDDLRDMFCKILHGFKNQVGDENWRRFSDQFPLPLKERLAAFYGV

GTP-bound Ran (Q69L) = GTP-bound Ran (Q69L) (UniProt P62826 1-216, Q69L); test: pull-down
[2] = target: T2, mCherry fusion LC-domain of FUS (residue 2–214, mCh:FUS-LC) (UniProt P35637 2-214); test: hydrogel binding assay
T2 sequence (looked up): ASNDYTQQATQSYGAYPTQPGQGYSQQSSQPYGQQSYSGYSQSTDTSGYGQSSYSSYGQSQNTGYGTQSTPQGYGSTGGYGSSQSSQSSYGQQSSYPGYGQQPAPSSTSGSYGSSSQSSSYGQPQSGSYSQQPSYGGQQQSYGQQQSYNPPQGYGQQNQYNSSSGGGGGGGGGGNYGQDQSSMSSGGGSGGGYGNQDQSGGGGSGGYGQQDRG

Karyopherinβ2 (Kapβ2) [3] = target: T1, Karyopherinβ2 (Kapβ2); test: hydrogel binding assay
Karyopherinβ2 (Kapβ2) [4] = target: T1, Karyopherinβ2 (Kapβ2); test: SEC
Karyopherinβ2 (Kapβ2) [5] = target: T1, Karyopherinβ2 (Kapβ2); test: AUC

Binder: GRGRGRGRGRGRGRGRGRGRGRGRGRGRGRGRGRGRGRGR [GR20]
- binding result (Karyopherinβ2 (Kapβ2) [1]): binds

B1: GST-Kapβ2 (natural protein)
chain: MEYEWKPDEQGLQQILQLLKESQSPDTTIQRTVQQKLEQLNQYPDFNNYLIFVLTKLKSEDEPTRSLSGLILKNNVKAHFQNFPNGVTDFIKSECLNNIGDSSPLIRATVGILITTIASKGELQNWPDLLPKLCSLLDSEDYNTCEGAFGALQKICEDSAEILDSDVLDRPLNIMIPKFLQFFKHSSPKIRSHAVACVNQFIISRTQALMLHIDSFIENLFALAGDEEPEVRKNVCRALVMLLEVRMDRLLPHMHNIVEYMLQRTQDQDENVALEACEFWLTLAEQPICKDVLVRHLPKLIPVLVNGMKYSDIDIILLKGDVEEDETIPDSEQDIRPRFHRSRTVAQQHDEDGIEEEDDDDDEIDDDDTISDWNLRKCSAAALDVLANVYRDELLPHILPLLKELLFHHEWVVKESGILVLGAIAEGCMQGMIPYLPELIPHLIQCLSDKKALVRSITCWTLSRYAHWVVSQPPDTYLKPLMTELLKRILDSNKRVQEAACSAFATLEEEACTELVPYLAYILDTLVFAFSKYQHKNLLILYDAIGTLADSVGHHLNKPEYIQMLMPPLIQKWNMLKDEDKDLFPLLECLSSVATALQSGFLPYCEPVYQRCVNLVQKTLAQAMLNNAQPDQYEAPDKDFMIVALDLLSGLAEGLGGNIEQLVARSNILTLMYQCMQDKMPEVRQSSFALLGDLTKACFQHVKPCIADFMPILGTNLNPEFISVCNNATWAIGEISIQMGIEMQPYIPMVLHQLVEIINRPNTPKTLLENTAITIGRLGYVCPQEVAPMLQQFIRPWCTSLRNIRDNEEKDSAFRGICTMISVNPSGVIQDFIFFCDAVASWINPKDDLRDMFCKILHGFKNQVGDENWRRFSDQFPLPLKERLAAFYGV
- binding result (GTP-bound Ran (Q69L)): binds

Binder: PRPRPRPRPRPRPRPRPRPRPRPRPRPRPRPRPRPRPRPR [GFP fusion 20 repeats of PR (GFP:PR20)]
- binding result [2]: binds
- binding result (Karyopherinβ2 (Kapβ2) [3]): binds

Results, then the binder that gave them:

- binding result (Karyopherinβ2 (Kapβ2) [1]): binds
Binder: PRPRPRPRPRPRPRPRPRPRPRPRPRPRPRPRPRPRPRPR [PR20]

- stoichiometry N (Karyopherinβ2 (Kapβ2) [4]): 2
- stoichiometry N (Karyopherinβ2 (Kapβ2) [5]): 1 and ≥ 2
Binder: PRPRPRPRPRPRPRPRPRPRPRPRPRPRPRPRPRPR [maltose-binding protein (MBP)-PR18]
